Publication PMC6572768, “THETA system allows one-step isolation of tagged proteins through temperature-dependent protein–peptide interaction” (Communications Biology, 2019)

T1: recombinant chicken cryptochrome 4, full-length, untagged (chicken)
T1 construct: chicken cryptochrome 4 (cCRY4); last residue Thr529; calculated molecular mass 61,063 Da; also called cCRY4; non-tagged cCRY4; source: budding yeast MaV203, overexpressed, in soluble extract
T1 chain: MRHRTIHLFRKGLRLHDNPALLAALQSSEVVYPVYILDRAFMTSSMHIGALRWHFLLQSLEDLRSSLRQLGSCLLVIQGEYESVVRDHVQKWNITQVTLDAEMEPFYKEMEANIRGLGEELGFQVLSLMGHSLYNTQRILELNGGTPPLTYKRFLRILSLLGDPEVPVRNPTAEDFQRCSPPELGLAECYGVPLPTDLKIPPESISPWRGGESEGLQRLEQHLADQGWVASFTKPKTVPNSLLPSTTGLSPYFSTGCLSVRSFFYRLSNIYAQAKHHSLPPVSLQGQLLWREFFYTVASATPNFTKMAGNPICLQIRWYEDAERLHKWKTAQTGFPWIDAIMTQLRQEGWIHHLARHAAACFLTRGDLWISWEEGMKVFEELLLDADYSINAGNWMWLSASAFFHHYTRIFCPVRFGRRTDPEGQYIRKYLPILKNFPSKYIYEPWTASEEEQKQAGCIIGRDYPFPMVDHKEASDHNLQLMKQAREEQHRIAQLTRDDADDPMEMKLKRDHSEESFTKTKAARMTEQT

T2: GST-cCRY4CCE (chicken)
T2 construct: chicken cryptochrome 4 (cCRY4) C-terminal region, Asp470-Thr529; also called cCRY4 C-terminal extension (CCE)
T2 chain: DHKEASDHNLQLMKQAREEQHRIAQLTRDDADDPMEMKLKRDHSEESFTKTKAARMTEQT


Experiments:
[1] = biological target: C13 monoclonal antibody (mouse); assay: ELISA; indirect competitive ELISA at 4, 15, 26 and 37 °C; antibody mixed with serially diluted antigen until equilibrium, then 15 min on a well coated with GST-cCRY4CCE (1 μg/mL for C13 mAb); SM/TBS; affinity constants by fit to a model formula
[2] = biological target: T1, recombinant chicken cryptochrome 4, …; assay: pull-down; renatured MBP-THETAL-His immobilised on Affi-Gel 15; crude extract mixed with the gel at 4 °C, washed, eluted by warming to 42 °C or 37 °C; conditions: one partner purified
[3] = biological target: T2, GST-cCRY4CCE; assay: ELISA; MBP-C13scFv-His refolded at various pH, dialysed against PBS pH 7.4, titrated on cCRY4CCE; detected with anti-6xHis antibody; EC50 by the Rodbard model

fold of the affinity constant at 4 °C over that at 37 °C [1] [times] | binding result [2] | binding result [3] | Binder
480 | – | – | TKTKAARMTEQT [GST-CT9]
– | binds | binds | MBP-C13scFv-His (scFv, V domains shown, C13 variable light (VL); (GGGGS)3 linker; C13 variable heavy (VH); Order VL-linker-VH in pET-22b(+); also called MBP-THETAL-His; THETAL; not shown: MBP, N-terminal, kept; His6, C-terminal, kept) VH: EVKLEESGGGLVQPGGSLRLSCATSGFTFTDYYMSWVRQPPGKALEWLGFIRNKANVYTTEYSASVKGRFTISRDNSQSILYLQMNTLRAEDSATYYCARDGGYDDGGYAMDYWGQGTSVTVSS VL: DIVMTQSHKFMSTSVGDRVSITCKASQDVGTAVAWYQQKPGQSPKLLIYWASTRHTGVPDRFTGSGSGTDFTLTISNVQSEDLADYFCQQYSSYPYTFGGGTKLEIK
